“And” between values parts separate entries of the source, which are not always exact repeats. Equal values may be shown once.

The target of assay [1] is T1, human IL-33 (Genentech, huIL33.his) (human, UniProt O95760 112-270).
T1 sequence (looked up): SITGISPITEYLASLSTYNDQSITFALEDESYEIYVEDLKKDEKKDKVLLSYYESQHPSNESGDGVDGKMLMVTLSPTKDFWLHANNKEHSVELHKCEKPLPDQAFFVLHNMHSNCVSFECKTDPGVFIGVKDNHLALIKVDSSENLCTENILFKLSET
Description: SPR Biacore.

For assay [2], the target named is T2, cyno IL-33 (construct not stated) (cynomolgus monkey, UniProt A0A2K5W3I1 112-269).
T2 construct: also called cynomolgus IL-33; cyno IL-33 (Genentech)
T2 sequence: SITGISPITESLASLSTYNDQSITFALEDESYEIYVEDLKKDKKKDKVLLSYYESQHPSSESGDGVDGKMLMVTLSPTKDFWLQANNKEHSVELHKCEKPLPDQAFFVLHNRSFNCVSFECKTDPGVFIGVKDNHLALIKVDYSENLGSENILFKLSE
Description: SPR Biacore. A general note: SPR reads the build-up and loss of mass on a sensor chip optically.

The target of assay [3] is T3, cyno IL-33 (cell-based blocking assay of Example 2) (cynomolgus monkey, UniProt A0A2K5W3I1 95-269).
T3 sequence: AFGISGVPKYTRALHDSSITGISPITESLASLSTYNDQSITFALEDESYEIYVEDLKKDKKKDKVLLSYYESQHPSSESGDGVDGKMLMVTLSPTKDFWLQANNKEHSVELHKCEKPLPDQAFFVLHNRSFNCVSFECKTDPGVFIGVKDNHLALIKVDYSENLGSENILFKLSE
Nature of the assay: cell-based or functional assay.

Assay [4] concerns the target T4, human IL-33 (cell-based blocking assay of Example 2) (human, UniProt O95760 112-270).
T4 sequence (looked up): T1 sequence (looked up)
Description: cell-based or functional assay.

For assay [5], the target named is T3, cyno IL-33 (cell-based blocking assay …). Nature of the assay: cell-based or functional assay. The source holds these as a separate data set.
Assay [6] addresses T4, human IL-33 (cell-based blocking assay …). Nature of the assay: cell-based or functional assay. The source holds these as a separate data set.

B1: 10H2 (antibody, V domains shown)
VH: EVKLEESGGGLVQPGGSMKLSCVASGFTFSNYWMNWVRQSPEKGLEWMAEITLKFNNYSTHYAESVKGRFSISRDDSKSTVYLQMNNLRAEDTGIYYCARRNYGDWYINVWGAGTTVTVSS
VL: DIVLTQSPTSLAVSLGQRATISCRASESVDKFGMSFLNWFQQKPGQPPKLLIFVASSQGSGVPARFSGSGSGTDFSLNIHPVEEDDTAMYFCQQSKDIPYTFGGGTKLEIK
notes: Murine hybridoma clone (Balb/C)
One may read the Kd as the free concentration of one partner at which half of the binding sites on the other are occupied at equilibrium, for simple one-to-one binding. Turning to B1, the Kd in assay [1] is 0.06 nM; in assay [2], 0.09 nM. In addition, the “IC50 (HEK-BLUE SEAP reporter, IL-33 blocking)” value (shortened to “IC50”) amounted to 0.0174 nM in assay [3] and 0.0053 nM in assay [4]. Also, the “IC90 (HEK-BLUE SEAP reporter, IL-33 blocking)” value was 271 pM and 0.0407 µg/mL in assay [3]; 31 pM and 0.0047 µg/mL in assay [4]. Besides, in assay [5], the “Cell assay (cy) IC90” value is 0.041 µg/mL and 0.27 nM. In addition, the “Cell assay (hu) IC90” value in assay [6] is 0.003 µg/mL and 0.02 nM.

B2: 9F6 (antibody, V domains shown)
VH: QVQLQQSGNDLVKPGASVKLSCKASGYTFTSYWINWIKQRPGQGLEWIGRIAPGSGFISYNELFKDKATLTVDTSSSTAYIQLGSLSSEDSAVYFCAREFYYGSFYGGFAYWGQGTLVTVSA
VL: DIQMNQSPSSLSASLGDTITITCHASQNIHVWLSWYQQKPGNIPKLLIYKASTLHTGVPSRFNGSGSGTGFTLTISSLQPEDIATYYCQQGQSSPLTFGAGTKLEVK
notes: as for B1
Turning to B2, the equilibrium dissociation constant (Kd) in assay [1] turned out to be 0.07 nM; in assay [2], 0.91 nM. Also, the “Cell assay (cy) IC90” value in assay [5] was > 1.5 µg/mL and > 9.9 nM. The “Cell assay (hu) IC90” value in assay [6] is 0.011 µg/mL and 0.73 nM.

B3: 2B6 (antibody, V domains shown)
VH: EVLLQQSGPELVKPGASVKISCNASGYTFSDYNMNWVKQSHGKSLESIGDINPKNGDTFYNQNFKDKATLTIDKSSSTVYMELRSLTSEDTAMYYCARHYYYGSSYGGFVYWGQGTLVTVAA
VL: DIQMNQSPSSLSASLGDTITITCHASQNINVWLSWYQQKAGNNPKLLIYAASKLHTGVPSRFTGSGSGTLFTLTISSLQPEDIATYYCQQGQSYPLTFGSGTNLELK
notes: as for B1
B3: the dissociation constant Kd in assay [1] came out at 0.03 nM; in assay [2] it was 0.33 nM. Moreover, the “Cell assay (cy) IC90” value in assay [5] is 0.526 µg/mL and 3.47 nM. The “Cell assay (hu) IC90” value in assay [6] is 0.02 µg/mL and 0.13 nM.

B4: 101.B11 (antibody, V domains shown)
VH: QVQLVQSGGGLVQPGGSLKLSCAASGFTFSGSAMHWVRQASGKGLEWVGRIRSRNNNYATAYAASVKGRFTISRDDSKRTTYLQMNSLKTEDTAVYYCTRLQQPPFDYWGQGTLVTVSS
VL: DIQMTQSPSSLSASVGDRVTITCRASQGIRNDLDWYQQKPGKAPKRLIYAASSLQSGVPSRFNGSGSGTEFTLTISSLQPEDFATYYCLQHDSYPLTFGGGTKVEIK
notes: Transgenic mouse / phage display
Consider B4, for which the results for the dissociation constant Kd in assay [1] and in assay [2] were 0.527 nM and 0.783 nM, respectively. In assay [6], the “Cell assay (hu) IC90” value was found to be 0.3 µg/mL.

B5: 10C12.38.H6.87Y.58I (antibody, V domains shown)
VH: EVQLVESGGGLVQPGGSLRLSCAASGFTFSSFSMSWVRQAPGKGLEWVATISGGKTFTDYVDSVKGRFTISRDDSKNTLYLQMNSLRAEDTAVYYCTRANYGNWFFEVWGQGTLVTVSS
VL: EIVLTQSPATLSLSPGERATLSCRASESVAKYGLSLLNWFQQKPGQPPRLLIFAASNRGSGIPARFSGSGSGTDFTLTISSLEPEDFAVYYCQQSKEVPFTFGQGTKVEIK
As for B5, the dissociation constant Kd in assay [1] stood at 0.015 nM; in assay [2], 0.037 nM. The figures for the “IC50” value in assay [3] and in assay [4] were 0.181 nM and 0.002 nM, respectively. For the same molecule, the “IC90 (HEK-BLUE SEAP reporter, IL-33 blocking)” value in assay [3] is 1220 pM and 0.183 µg/mL; in assay [4] it was 20.5 pM and 0.0031 µg/mL. In assay [5], the “Cell assay (cy) IC90” value was 0.185 µg/mL and 1.22 nM. The “Cell assay (hu) IC90” value in assay [6] was 0.004 µg/mL and 0.026 nM.

B6: 6C11 (antibody, V domains shown)
VH: EVKLEESGGGLVQPGGSMKLSCVASGFTFNKFWMNWVRQSPEKGLEWVAEIRLNSINYVKDYAESVKGRFTISRDDSKNSVYLQMNNLRAEDTGIYYCIRRNYGNWFFEIWGAGTTVTVSS
VL: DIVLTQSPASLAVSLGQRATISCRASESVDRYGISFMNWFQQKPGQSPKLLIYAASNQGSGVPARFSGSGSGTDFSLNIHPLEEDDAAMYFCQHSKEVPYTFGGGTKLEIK
notes: as for B1
In the case of B6, the values for the Kd in assay [1] and in assay [2] were 0.06 nM and 0.79 nM, respectively. The “IC50” value is over 10 nM in assay [3] and 0.0213 nM in assay [4]. Besides, the “IC90 (HEK-BLUE SEAP reporter, IL-33 blocking)” value in assay [3] was > 10000 pM and > 1.5 µg/mL; in assay [4] it was 120 pM and 0.0181 µg/mL. In assay [5], the “Cell assay (cy) IC90” value was > 1.5 µg/mL and > 9.9 nM. In addition, in assay [6], the “Cell assay (hu) IC90” value was 0.021 µg/mL and 0.14 nM.

B7: 4G12.FW4 (antibody, V domains shown)
VH: ELQLQESGPGLVKPSETLSLTCTVSGGSIRSSIFYWGWIRQPPGKGLEWIGSIYYSGRTYYNPSLKSRVTISVDTSKNQFSLMLTSVTAADTAVYYCARAGGLYNWNDESFSFYMDVWGQGTTVTVSS
VL: EIVLTQSPGTLSLSPGERATLSCRASQSFSSSYLAWYQQKPGQAPRLLIYGASSRATGIPDRFSGSGSGTDFTLTISRLEPEDFAVYYCQQYDRSPLTFGGGTKVEIK
notes: Derivative of 4G12
Consider B7, for which the Kd in assay [1] was found to be 0.038 nM; in assay [2] it was 0.07 nM. In addition, the “Cell assay (cy) IC90” value in assay [5] was 0.034 µg/mL and 0.224 nM. Moreover, the “Cell assay (hu) IC90” value in assay [6] was 0.17 µg/mL and 1.12 nM.

B8: 10C12 (antibody, V domains shown)
VH: DVNLVESGGGSVKPGGSLKLSCVASGFTFSSFSMSWVRQTPEKRLEWVATISGGKTFTDYVDSVKGRFTISRDDAKNTLYLQMSSLESEDTAMYYCTRANYGNWFFEVWGAGTTVAVSS
VL: DIVLTQSPGFLVVSLGQRATISCRASESVAKYGLSLLNWFQQKPGQPPKLLIFAASNRGSGVPARFSGSGSGTDFSLNIHPMEEDDTAMYFCQQSKEVPFTFGSGTKLEIK
notes: Murine hybridoma clone from IL33 KO mouse
As for B8, the Kd in assay [1] is at most 0.007 nM; in assay [2] it was 0.07 nM. The results for the “IC50” value in assay [3] and in assay [4] were 0.142 nM and 0.0039 nM, respectively. For the same molecule, the “IC90 (HEK-BLUE SEAP reporter, IL-33 blocking)” value was 1290 pM and 0.193 µg/mL in assay [3]; 18.2 pM and 0.0027 µg/mL in assay [4]. In addition, the “Cell assay (cy) IC90” value in assay [5] was 0.193 µg/mL and 1.27 nM. Moreover, in assay [6], the “Cell assay (hu) IC90” value was 0.002 µg/mL and 0.013 nM.

Source of the values: patent US20190092852A1 (Genentech, published 2019).
